Laboratory results taken from patent publication US20100190692A1 (published 2010).
One block for each molecule: values may come before it. *1 amine or outer side, *2 acyl side, *3 side chain or, on linkers, in order; H or OH if unused. [ ]: non-standard residue; d: D form. dSer(tBu) = CC(C)(C)OC[C@@H](N[*:1])C(=O)[*:2]; pGlu = O=C1CC[C@@H](C(=O)O)N1; azaGly = NNC(=O)O

Columns and labels:
[1] = molecular target: T1, human GnRH receptor (human, UniProt P30968 1-328); test: cell-based or functional assay
T1 construct: whole, on cells; Endogenous receptor; also called LHRH receptor; human pituitary GnRH receptor
T1 sequence (looked up): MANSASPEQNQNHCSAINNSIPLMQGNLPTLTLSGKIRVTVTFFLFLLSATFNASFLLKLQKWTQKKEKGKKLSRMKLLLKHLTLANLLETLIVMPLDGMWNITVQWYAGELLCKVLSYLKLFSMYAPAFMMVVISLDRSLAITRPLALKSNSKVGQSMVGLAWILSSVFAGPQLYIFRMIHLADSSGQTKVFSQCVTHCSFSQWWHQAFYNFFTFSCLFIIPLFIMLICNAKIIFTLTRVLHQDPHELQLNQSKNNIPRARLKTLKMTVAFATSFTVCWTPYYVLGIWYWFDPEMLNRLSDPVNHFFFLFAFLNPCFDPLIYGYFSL

[2] = molecular target: T2, rat pituitary GnRH receptor (rat, UniProt P30969 1-327); test: radioligand displacement curves on rat pituitary membranes (control)
T2 construct: whole, on cells; also called Rat pituitaries
T2 sequence (looked up): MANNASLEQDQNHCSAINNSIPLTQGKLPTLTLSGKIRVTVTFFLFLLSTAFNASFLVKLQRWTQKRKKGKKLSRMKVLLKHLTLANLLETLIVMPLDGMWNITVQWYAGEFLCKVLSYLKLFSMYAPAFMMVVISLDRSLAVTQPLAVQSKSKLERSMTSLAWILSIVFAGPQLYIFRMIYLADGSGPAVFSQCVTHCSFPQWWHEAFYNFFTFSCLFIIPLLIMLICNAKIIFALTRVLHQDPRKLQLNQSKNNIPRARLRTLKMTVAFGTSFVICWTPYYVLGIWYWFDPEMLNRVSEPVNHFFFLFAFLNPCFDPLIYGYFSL

[3] = molecular target: T1, human GnRH receptor; test: radioligand displacement curves on ME15392 melanoma cell membranes
[4] = molecular target: T1, human GnRH receptor; test: radioligand displacement curves on BLM melanoma cell membranes

Molecule: Antide (LHRH antagonist, Sigma Chemical Co., No. A8802) (peptide)
- inhibition of proliferation of MV3 melanoma cells at 10^-4 M [1]: 15%
- inhibition of proliferation of MV3 melanoma cells at 10^-5 M [1]: 35%
- stimulation of growth of MV3 melanoma cells at 10^-6 M [1]: 40%

Molecule: [pGlu]HWSY[dSer(tBu)]LRP[azaGly]-NH2 (also: ^125I-labelled form used as tracer in binding assay, also called Goserelin) [GnRH agonist LHRH-A (ZOLADEX, [D-Ser(tBu)^6Aza-Gly-LHRH])]
- Kd [2]: 1.5 to 2 nM
- Kd [3]: 0.1 to 0.6 nM
- Kd [4]: 0.7 to 1.1 nM

Further lines, results first:

- inhibition of proliferation of MV3 melanoma cells from day 4 on (10^-4, 10^-5, 10^-6 M) [1]: 15%
Molecule: Triptorelin (LHRH agonist, Sigma Chemical Co., No. L9761) (peptide)

- decrease of proliferation of U-87MG cells at 10^-6 M [1]: 28%
- inhibition of proliferation of U-87MG cells at 10^-5 M [1]: 30%
Molecule: Cetrorelix (GnRH antagonist) (peptide)
